{"source": "paper doi:10.1101/2025.10.10.681740", "about": "“Distinct Filament Conformation for Receptor-Bound Amyloid-ß from Alzheimer’s Disease Brain” (bioRxiv, 2025)", "key": {"[1]": {"design": "method as in 3 sources, one per row (each row's own in cited_ref): ref 13 = [13]; PMID 9600986; doi:10.1073/pnas.95.11.6448; 13. Lambert MP , Diffusible, nonfibrillar ligands derived from Abeta1-42 are potent central nervous system neurotoxins . Proc Natl Acad Sci U S A 95 , 6448 – 6453 ( 1998 ). 9600986 10.1073/pnas.95.11. ||| ref 15 = [15]; PMID 26018073; doi:10.1074/jbc.M115.643577; 15. Kostylev MA , Prion-Protein-interacting Amyloid-beta Oligomers of High Molecular Weight Are Tightly Correlated with Memory Impairment in Multiple Alzheimer Mouse Models . J Biol Chem 290 , 17415 – ||| ref 14 = [14]; PMID 19216516; doi:10.1021/bi802046n; 14. Yu L , Structural characterization of a soluble amyloid beta-peptide oligomer . Biochemistry 48 , 1870 – 1877 ( 2009 ). 19216516 10.1021/bi802046n", "settings": "cited from earlier work"}, "[2]": {"tested_on": "PrP^C"}, "[3]": {"tested_on": "IC16 antibody", "experiment": "IC16 capture ELISA", "type": "binding"}, "[4]": {"tested_on": "Aß42", "experiment": "Thioflavin-T polymerization of Aß42", "type": "biochemical"}, "[5]": {"tested_on": "receptor-bound Aß", "experiment": "Lecanemab capture ELISA", "type": "binding, human", "settings": "Lecanemab coated plate, D54D2 detection; Extended Data Fig. 1: 5 μg/mL coating, vs isotype control and no antibody wells"}, "[6]": {"tested_on": "Aß species", "settings": "reported; cited from earlier work", "source_text": "For this comparison, the PSCMA-released Aß pool prior to antibody affinity retention was compared to PSCMA-resistant material containing plaque-associated Aß. The PSCMA-resistant material was further extracted with sarkosyl, and the sarkosyl-insoluble pellet resuspended for immunoblot. The Aß ..."}}, "note": "Entries after “also recorded” stand apart in the source; their conditions may differ."}
{"molecule": "Aß42 globulomer: Globulomers of Aß42 are prepared in SDS and then isolated as stable 12-mers", "values": [{"measurement": "assembly state", "setting": "[1]; prepared in SDS", "value": "stable 12-mers"}, {"measurement": "PrP^C binding, summary", "setting": "[2]", "value": "binds"}, {"measurement": "apparent avidity for PrP^C in PLISA", "setting": "[2]", "value": "similar"}, {"measurement": "affinity/activity in IC16 capture ELISA", "setting": "[3]", "value": "much higher activity"}]}
{"molecule": "Aß42 monomers: HFIP-monomerized synthetic Aß42", "values": [{"measurement": "apparent avidity for PrP^C in PLISA", "setting": "[2]", "value": "nil or at least two orders of magnitude lower"}]}
{"molecule": "amyloid-ß derived diffusible ligands [synthetic Aß42 ADDL]", "values": [{"measurement": "apparent MR", "setting": "[1]; no reference at place", "value": "500,000"}, {"measurement": "assembly size", "setting": "[1]; synthetic Aß42 in F12 media, metastable spherical assemblies", "value": 500, "unit": "kDa"}, {"measurement": "PrP^C binding, summary", "setting": "[2]", "value": "binds"}]}
{"molecule": "cellular prion protein [PrP^C]", "values": [{"measurement": "effect on Aß42 amyloid filament formation", "setting": "[4]", "value": "inhibits Aß42 amyloid filament formation"}, {"measurement": "effect on rate of Aß42 polymerization seeded by fibrils", "setting": "[4]; pH 7.4", "value": "reduced the rate of Aß42 polymerization or Aß42 polymerization seeded by fibrils"}, {"measurement": "effect on rate of Aß42 polymerization, unseeded", "setting": "[4]; pH 7.4", "value": "reduced the rate of Aß42 polymerization"}]}
{"molecule": "Lecanemab: FDA approved anti-Aß antibody (antibody, chains of the INN, looked up, V domains shown) VH: EVQLVESGGGLVQPGGSLRLSCSASGFTFSSFGMHWVRQAPGKGLEWVAYISSGSSTIYYGDTVKGRFTISRDNAKNSLFLQMSSLRAEDTAVYYCAREGGYYYGRSYYTMDYWGQGTTVTVSS VL: DVVMTQSPLSLPVTPGAPASISCRSSQSIVHSNGNTYLEWYLQKPGQSPKLLIYKVSNRFSGVPDRFSGSGSGTDFTLRISRVEAEDVGIYYCFQGSHVPPTFGPGTKLEIK", "values": [{"measurement": "affinity / reactivity for receptor-bound Aß", "setting": "[5]", "value": "high affinity for the receptor-bound Aß species; also recorded: receptor-bound Aß is recognized by this antibody; also recorded: binds to ELISA plates coated with 5 μg/mL Lecanamab but not to wells coated with isotype control or to no antibody wells"}, {"measurement": "binding preference among Aß species", "setting": "[6]", "value": "preferential affinity for oligomeric and protofibrillary Aß species, with less avidity for Aß filaments and minimal interaction with monomeric Aß"}]}
